Where “and” joins values, the source holds several entries; their conditions need not be identical. Identical values can stand only once. Like-named read-outs stand apart in the source and are kept apart here.
Columns and labels:
NaV1.7 [1] = target: T1, NaV1.7 (Homo sapiens, UniProt Q15858); format: cell-based; details: Fig 6d
Description: Current-voltage (IV) curves were determined in HEK-NaV1.7 cells, in the absence and presence of TMEM233, from a series of step pulses (500 ms) ranging from −110 to +55 mV (5 mV increments, repetition interval 5 s) before and after incubation with ExTxA (1 μM) from a holding potential of −90 mV. Currents were converted to conductance (G) using G = I/(V − Vrev), with Vrev being the reversal potential, plotted against voltage and fitted with a Boltzmann equation to obtain GV (conductance-voltage) curves. Voltage dependence of steady-state fast inactivation was determined by a subsequent 10 ms pulse to −20 mV immediately following the 500 ms depolarization step detailed above to assess the available non-inactivated channels.

NaV1.7 [2] = target: T1, NaV1.7; format: cell-based
Description: To determine recovery from fast inactivation, a 20 ms pulse to 0 mV from a holding potential of −90 mV was used to induce fast inactivation. A subsequent recovery period, ranging from 1 ms to 2216 ms in 50% increments at −90 mV, was followed by a last 20 ms test pulses to 0 mV to determine the time-dependence of recovery from fast inactivation. The proportion of available channels was determined by normalizing peak currents from the last to the first pulse. A two-phase exponential equation was fit to the normalized current, plotted as a function of time, to determine the time constants τ1 and τ2 of recovery from fast inactivation.

hNaV1.7/TMEM233 = experiment: Persistent current, CHO hNaV1.7/TMEM233; format: cell-based, human; details: Supplementary Fig 1e
TMEM233 = TMEM233 (Homo sapiens, UniProt B4DJY2); experiment: Currents in Cos-1 cells transfected with TMEM233 only; format: cell-based
Description: Whole-cell patch clamp experiments involving HEK293, COS-1, CHO, ND7/23, F11, SH-SY5Y and TE-671 cells were performed on a QPatch II automated electrophysiology platform (Sophion Bioscience, Ballerup, Denmark) as previously described. Cells at approximately 70–80% confluency were harvested from T75 flasks using TrypLE Express at 37 °C for 2–5 min and resuspended in DMEM with 25 mM HEPES (Sigma-Aldrich, NSW, Australia), 100 U/mL Penicillin-Streptomycin (Gibco) and 40 µg/mL trypsin inhibitor from Glycine max (soybean) (Sigma Aldrich) prior to recovery on a QStirrer (Sophion) for 30 min. 16-channel patch plates with a patch hole diameter of 1 μm and resistance of 2 ± 0.02 MΩ were used. Cell positioning and sealing parameters were as follows: positioning pressure −60 mbar, minimum seal resistance 0.1 GΩ, holding potential −100 mV, holding pressure −20 mbar. Whole-cell currents were filtered at 5 kHz and acquired at 25 kHz. Series resistance compensation was used and set to 70%.

NaV1.7 [3] = target: T1, NaV1.7; experiment: Effect of TMEM233 co-expression on ramp currents; format: cell-based; details: Fig 6j
Description: The holding potential was −90 mV. After a 50 ms pulse to −100 mV, ramps from −100 mV to +20 mV at a rate of 0.2 and 1.0 mV/ms were applied before and after ExTxA (100 nM) addition.

NaV1.7 [4] = target: T1, NaV1.7; experiment: Effect of TMEM233 co-expression on use-dependence; format: cell-based; details: Fig 6l; for Use-dependence, predicted (LS) mean: n = 6
Description: Use-dependence experiments were performed on the Patchliner Quattro (Nanion Technologies GmbH, Munich, Germany) using an EPC 10 USB Quadro Patch Clamp Amplifier (HEKA Elektronik GmbH, Lambrecht/Pfalz, Germany) and PatchControlHT 2.01.30 and PatchMaster v2x90.4 beta softwares (HEKA Elektronik GmbH, Lambrecht/Pfalz, Germany). Cells at approximately 70–80% confluency were harvested from T75 flasks using Accutase (Thermofisher, Massachusetts, USA) at room temperature for 2–5 min and resuspended in high-glucose Dulbecco’s Modified Eagle Medium (DMEM) (Sigma-Aldrich, New South Wales, Australia) with 15 mM HEPES (Sigma-Aldrich, NSW, Australia) prior to recovery in the cell hotel of the Patchliner for 10 min. ECS contained (in mM): NaCl 140, KCl 4, CaCl2 2, MgCl2 1, HEPES 10, glucose 5. The pH was adjusted to 7.4 with NaOH, and the osmolarity was 298 mOsm. ICS contained (in mM): CsCl 50, NaCl 10, CsF 60, EGTA 20, HEPES 10. The pH was adjusted to 7.2 with CsOH, and the osmolarity was 285 mOsm. A seal enhancer was used containing (in mM): NaCl 80, KCl 3, MgCl2 10, CaCl2 35, HEPES Na^+ salt 10. The pH was adjusted to 7.4 with HCl, and the osmolarity was 298 mOsm. The seal enhancer was washed off before starting the experiments. HEK293 cells stably expressing hNaV1.7/ β1 or hNaV1.7/ β1/C-HA TMEM233 were used. Consecutive series of 30 depolarizing 20 ms pulses from −90 mV to −20 mV were applied with frequencies of 1 Hz, 2 Hz, 5 Hz, 10 Hz, and 20 Hz. After the experiment ExTxA (100 nM) was applied to confirm TMEM233 expression. The amplitude of the test current was normalized to the current induced by the first pulse of its series, with the last test pulse plotted as a function of frequency for statistical analysis.

T1 sequence (Q15858 whole entry): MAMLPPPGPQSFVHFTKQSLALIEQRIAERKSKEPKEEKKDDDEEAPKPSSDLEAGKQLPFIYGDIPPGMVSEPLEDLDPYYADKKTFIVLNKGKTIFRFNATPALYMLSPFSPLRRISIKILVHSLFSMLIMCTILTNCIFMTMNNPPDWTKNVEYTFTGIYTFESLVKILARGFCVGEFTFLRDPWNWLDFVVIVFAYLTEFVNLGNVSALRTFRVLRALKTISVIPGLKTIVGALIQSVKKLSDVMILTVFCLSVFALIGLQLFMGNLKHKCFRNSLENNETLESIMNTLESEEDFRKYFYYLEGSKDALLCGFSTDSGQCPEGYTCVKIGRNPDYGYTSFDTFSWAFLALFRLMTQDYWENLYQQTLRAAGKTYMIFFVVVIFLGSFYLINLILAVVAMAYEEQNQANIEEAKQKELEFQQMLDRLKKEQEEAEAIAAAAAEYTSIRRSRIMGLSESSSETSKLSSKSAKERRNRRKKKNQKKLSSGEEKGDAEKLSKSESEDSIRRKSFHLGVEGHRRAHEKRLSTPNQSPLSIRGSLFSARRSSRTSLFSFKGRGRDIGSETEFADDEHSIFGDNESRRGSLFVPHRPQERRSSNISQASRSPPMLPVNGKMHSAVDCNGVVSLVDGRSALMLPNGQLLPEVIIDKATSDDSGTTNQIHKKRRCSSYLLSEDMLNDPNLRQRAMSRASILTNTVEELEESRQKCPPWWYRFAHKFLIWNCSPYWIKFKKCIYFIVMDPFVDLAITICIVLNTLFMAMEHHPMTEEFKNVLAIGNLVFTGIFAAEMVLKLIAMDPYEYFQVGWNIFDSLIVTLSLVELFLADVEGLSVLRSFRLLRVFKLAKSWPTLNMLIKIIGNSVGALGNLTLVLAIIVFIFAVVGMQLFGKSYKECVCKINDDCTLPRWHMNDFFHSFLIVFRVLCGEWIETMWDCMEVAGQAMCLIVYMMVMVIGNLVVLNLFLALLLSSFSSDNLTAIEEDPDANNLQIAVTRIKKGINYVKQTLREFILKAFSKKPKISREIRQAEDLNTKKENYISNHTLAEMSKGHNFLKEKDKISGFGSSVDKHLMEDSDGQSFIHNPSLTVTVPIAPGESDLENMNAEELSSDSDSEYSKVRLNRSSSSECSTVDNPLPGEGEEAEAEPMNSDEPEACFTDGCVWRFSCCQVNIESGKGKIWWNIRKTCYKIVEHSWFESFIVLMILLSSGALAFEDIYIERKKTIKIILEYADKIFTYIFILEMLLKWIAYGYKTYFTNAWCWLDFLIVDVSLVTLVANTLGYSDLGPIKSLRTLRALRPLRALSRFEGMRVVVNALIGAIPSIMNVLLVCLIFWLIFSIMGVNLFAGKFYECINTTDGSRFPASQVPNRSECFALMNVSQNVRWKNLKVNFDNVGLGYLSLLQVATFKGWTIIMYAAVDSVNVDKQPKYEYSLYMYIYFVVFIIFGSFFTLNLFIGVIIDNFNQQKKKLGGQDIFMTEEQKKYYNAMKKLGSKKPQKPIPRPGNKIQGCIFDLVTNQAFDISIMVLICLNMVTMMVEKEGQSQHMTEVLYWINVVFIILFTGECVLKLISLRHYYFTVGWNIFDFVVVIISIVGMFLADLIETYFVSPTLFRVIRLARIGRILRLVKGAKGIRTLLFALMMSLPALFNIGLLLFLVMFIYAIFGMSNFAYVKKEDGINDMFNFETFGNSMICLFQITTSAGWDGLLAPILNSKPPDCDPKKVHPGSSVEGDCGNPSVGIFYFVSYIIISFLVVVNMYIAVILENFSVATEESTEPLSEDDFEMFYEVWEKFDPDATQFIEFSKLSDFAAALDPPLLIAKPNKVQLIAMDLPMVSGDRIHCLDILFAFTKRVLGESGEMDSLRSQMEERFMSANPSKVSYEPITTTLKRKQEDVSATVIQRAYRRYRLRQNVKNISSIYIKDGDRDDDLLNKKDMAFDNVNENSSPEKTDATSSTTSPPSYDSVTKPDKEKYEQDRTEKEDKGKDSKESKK
T1 sequence (Q07699 19-218, further chain): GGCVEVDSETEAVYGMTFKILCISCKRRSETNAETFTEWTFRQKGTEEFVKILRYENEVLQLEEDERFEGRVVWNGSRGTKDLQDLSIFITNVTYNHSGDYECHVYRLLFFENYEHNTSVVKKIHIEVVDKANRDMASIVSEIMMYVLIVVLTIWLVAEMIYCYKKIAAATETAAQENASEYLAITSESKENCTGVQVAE

B1: TMEM233 (protein)
chain: MSQYAPSPDFKRALDSSPEANTEDDKTEEDVPMPKNYLWLTIVSCFCPAYPINIVALVFSIMSLNSYNDGDYEGARRLGRNAKWVAIASIIIGLLIIGISCAVHFTRNA
V50 of Activation (NaV1.7 [1]; Nav1.7/β1/TMEM233, HEK, individual cells, one line each (n = 11)): -31.12 and -24.58 and -26.49 and -27.4 and -28.15 and -19.85 and -25.7 and -20.24 and -36.47 and -27.6 and -24.5 | V50 of Activation, mean (NaV1.7 [1]; Nav1.7/β1/TMEM233, HEK, mean, n = 11): -26.55 | V50 of Activation, difference between means (B - A) ± SEM (NaV1.7 [1]; Nav1.7/β1/TMEM233 minus Nav1.7/β1 (Mock), unpaired t test, P value 0.8489): -0.4462 ± 2.301 | Tau (Fast) RFFI, individual values (NaV1.7 [2]): 7.679 | Tau (Fast) RFFI, mean (NaV1.7 [2]; Fig 6i, NaV1.7/β1/TMEM233, mean of n = 18, NaV1.7/β1 (Mock) mean 6.695, n = 8): 9.635 | Tau (Fast) RFFI, individual values (NaV1.7 [2]; Fig 6i, NaV1.7/β1/TMEM233, single replicates): 8.086 and 8.074 and 13.19 and 9.314 and 15.71 and 7.639 and 9.188 and 12.89 and 5.959 and 5.962 and 16.54 and 10.99 and 8.961 and 6.569 | Tau (Fast) RFFI, difference between means (Mock - TMEM233) ± SEM (NaV1.7 [2]; Fig 6i, unpaired t test P = 0.0236, 95% CI -5.450 to -0.4305): -2.940 ± 1.216 | Tau Fast, mean (NaV1.7 [2]; Fig 6m, co-expression with NaV1.7/β1, mean of n = 7, NaV1.7/β1 mean 6.051, n = 16): 10.53 | Tau Fast, individual values (NaV1.7 [2]; Fig 6m, co-expression with NaV1.7/β1, single replicates): 9.314 and 15.71 and 7.639 and 8.588 and 10.41 and 9.188 and 12.89 | Tau Fast, mean diff. NaV1.7/β1/TMEM233 vs. NaV1.7/β1 (NaV1.7 [2]; Fig 6m, Tukey's adjusted P 0.0002, 95% CI 2.091 to 6.876): 4.484 | Tau Fast, mean diff. vs. NaV1.7/β1/TMEM233 35-109 (NaV1.7 [2]; Fig 6m, Tukey's adjusted P 0.0026, 95% CI 1.415 to 7.059): 4.237 | Persistent Current, mean (hNaV1.7/TMEM233; TMEM233 column, toxin not named, mean of n = 16, Control mean -0.0001975, n = 6): -2.01 | Persistent Current, individual values (hNaV1.7/TMEM233; TMEM233 column, toxin not named, single replicates): -0.5607 and -1.881 and -2.243 and -3.609 and -4.773 and -1.301 and -2.129 and -2.32 and -2.174 and -2.568 and -0.4229 and -2.1714 and -2.227 and -1.642 | Persistent Current, difference between means (TMEM233 - Control) ± SEM (hNaV1.7/TMEM233; unpaired t test P = 0.0003, 95% CI -2.968 to -1.051): -2.010 ± 0.4595 | Peak Current, difference between means (COS-1 TMEM233 - COS-1) ± SEM (TMEM233): 55.71 ± 37.05 | Peak Current, individual values (TMEM233): -254.824 and -273.19 and -178.816 and -233.506 and -232.738 and -200.138 | Peak Current, mean (TMEM233): -228.9 | Peak current ramp 1 mV/ms, mean (NaV1.7 [3]; NaV1.7-TMEM233, mean of n = 9, NaV1.7 + pcDNA3.1 mean -0.1808, n = 11, analysis title says (+ExTxA)): -0.1202 | Peak current ramp 1 mV/ms, individual values (NaV1.7 [3]; NaV1.7-TMEM233, single replicates, analysis title says (+ExTxA)): -0.1309 and -0.159 and -0.09062 and -0.1816 and -0.1566 and -0.06849 and -0.0929 and -0.1073 and -0.09446 | Peak current ramp 1 mV/ms, difference between means (TMEM233 - pcDNA3.1) ± SEM (NaV1.7 [3]; unpaired t test P = 0.0914 (ns), 95% CI -0.01079 to 0.1320): 0.06063 ± 0.03399 | Use-dependence, predicted (LS) mean diff. (NaV1.7 - NaV1.7 + TMEM233) (NaV1.7 [4]; 1 Hz, Šídák's adjusted P >0.9999, 95% CI -0.1024 to 0.1060): 0.001783 | Use-dependence, predicted (LS) mean diff. (NaV1.7 - NaV1.7 + TMEM233) (NaV1.7 [4]; 2 Hz, Šídák's adjusted P 0.9266, 95% CI -0.07138 to 0.1370): 0.0328 | Use-dependence, predicted (LS) mean diff. (NaV1.7 - NaV1.7 + TMEM233) (NaV1.7 [4]; 5 Hz, Šídák's adjusted P 0.8365, 95% CI -0.06345 to 0.1449): 0.04074 | Use-dependence, predicted (LS) mean diff. (NaV1.7 - NaV1.7 + TMEM233) (NaV1.7 [4]; 10 Hz, Šídák's adjusted P 0.4449, 95% CI -0.04066 to 0.1677): 0.06353 | Use-dependence, predicted (LS) mean diff. (NaV1.7 - NaV1.7 + TMEM233) (NaV1.7 [4]; 20 Hz, Šídák's adjusted P 0.0161 (*), 95% CI 0.01628 to 0.2247): 0.1205 | Use-dependence, predicted (LS) mean (NaV1.7 [4]; NaV1.7 + TMEM233, 1 Hz, NaV1.7 0.9861, n = 8): 0.9843 | Use-dependence, predicted (LS) mean (NaV1.7 [4]; NaV1.7 + TMEM233, 2 Hz, NaV1.7 0.9649, n = 8): 0.9321 | Use-dependence, predicted (LS) mean (NaV1.7 [4]; NaV1.7 + TMEM233, 5 Hz, NaV1.7 0.9335, n = 8): 0.8928 | Use-dependence, predicted (LS) mean (NaV1.7 [4]; NaV1.7 + TMEM233, 10 Hz, NaV1.7 0.8933, n = 8): 0.8298 | Use-dependence, predicted (LS) mean (NaV1.7 [4]; NaV1.7 + TMEM233, 20 Hz, NaV1.7 0.8046, n = 8): 0.6842

From article PMC10147923, “Pain-causing stinging nettle toxins target TMEM233 to modulate NaV1.7 function” (Nature Communications, 2023)
